According to patent US20150175711A1 (SINOMAB BIOSCIENCE, published 2015):

Legend:
[1] = target: anti-idiotype mIgG Fab-glycophorin A fusion protein on transfected SP2/0 cells; experiment: cell-based ELISA, SM03 on transfected SP2/0 GlycoA clone 1 (surface expression graded -), anti-human Fc-HRP
[2] = target: anti-idiotype mIgG Fab-glycophorin A fusion protein on transfected SP2/0 cells; experiment: cell-based ELISA, SM03 on transfected SP2/0 GlycoA clone 9 (surface expression graded -), anti-human Fc-HRP
[3] = target: anti-idiotype mIgG Fab-GPI-DAF fusion protein on transfected SP2/0 cells; experiment: cell-based ELISA, SM03 on transfected SP2/0 GPI clone 6 (surface expression graded -), anti-human Fc-HRP
[4] = target: anti-idiotype mIgG Fab-GPI-DAF fusion protein on transfected SP2/0 cells; experiment: cell-based ELISA, SM03 on transfected SP2/0 GPI clone 8 (surface expression graded -), anti-human Fc-HRP
[5] = target: anti-idiotype IgD-TM on transfected SP2/0 cells; experiment: cell-based ELISA, SM03 10 ug/ml on transfected SP2/0 Clone AF9 (surface expression graded -), anti-human Fc-HRP
[6] = target: anti-idiotype mIgG Fab-GPI-DAF fusion protein on transfected SP2/0 cells; experiment: cell-based ELISA, SM03 on transfected SP2/0 GPI clone 5 (surface expression graded +), anti-human Fc-HRP
[7] = target: anti-idiotype IgD-TM on transfected SP2/0 cells; experiment: cell-based ELISA, SM03 10 ug/ml on transfected SP2/0 Clone BB4 (surface expression graded -), anti-human Fc-HRP
[8] = target: anti-idiotype mIgG Fab-GPI-DAF fusion protein on transfected SP2/0 cells; experiment: cell-based ELISA, SM03 on transfected SP2/0 GPI clone 3 (surface expression graded +++), anti-human Fc-HRP
[9] = target: anti-idiotype mIgG Fab-glycophorin A fusion protein on transfected SP2/0 cells; experiment: cell-based ELISA, SM03 on transfected SP2/0 GlycoA clone 5 (surface expression graded +++), anti-human Fc-HRP
[10] = target: anti-idiotype mIgG Fab-GPI-DAF fusion protein on transfected SP2/0 cells; experiment: cell-based ELISA, SM03 on transfected SP2/0 GPI clone 7 (surface expression graded -), anti-human Fc-HRP
[11] = target: anti-idiotype IgD-TM on transfected SP2/0 cells; experiment: cell-based ELISA, SM03 10 ug/ml on transfected SP2/0 Clone BF9 (surface expression graded -), anti-human Fc-HRP
[12] = target: anti-idiotype IgD-TM on transfected SP2/0 cells; experiment: cell-based ELISA, SM03 10 ug/ml on transfected SP2/0 Clone BB5 (surface expression graded -), anti-human Fc-HRP
[13] = target: anti-idiotype IgD-TM on transfected SP2/0 cells; experiment: cell-based ELISA, SM03 10 ug/ml on transfected SP2/0 Clone AG5 (surface expression graded +++), anti-human Fc-HRP
[14] = target: anti-idiotype mIgG Fab-glycophorin A fusion protein on transfected SP2/0 cells; experiment: cell-based ELISA, SM03 on transfected SP2/0 GlycoA clone 15 (surface expression graded +++), anti-human Fc-HRP
[15] = target: anti-idiotype mIgG Fab-GPI-DAF fusion protein on transfected SP2/0 cells; experiment: cell-based ELISA, SM03 on transfected SP2/0 GPI clone 4 (surface expression graded +++), anti-human Fc-HRP
[16] = target: anti-idiotype mIgG Fab-GPI-DAF fusion protein on transfected SP2/0 cells; experiment: cell-based ELISA, SM03 on transfected SP2/0 GPI clone 1 (surface expression graded -), anti-human Fc-HRP
[17] = target: anti-idiotype mIgG Fab-glycophorin A fusion protein on transfected SP2/0 cells; experiment: cell-based ELISA, SM03 on transfected SP2/0 GlycoA clone 10 (surface expression graded -), anti-human Fc-HRP
[18] = target: anti-idiotype mIgG Fab-glycophorin A fusion protein on transfected SP2/0 cells; experiment: cell-based ELISA, SM03 on transfected SP2/0 GlycoA clone 3 (surface expression graded -), anti-human Fc-HRP
[19] = target: anti-idiotype mIgG Fab-GPI-DAF fusion protein on transfected SP2/0 cells; experiment: cell-based ELISA, SM03 on transfected SP2/0 GPI clone 9 (surface expression graded -), anti-human Fc-HRP
[20] = target: anti-idiotype mIgG Fab-glycophorin A fusion protein on transfected SP2/0 cells; experiment: cell-based ELISA, SM03 on transfected SP2/0 GlycoA clone 8 (surface expression graded -), anti-human Fc-HRP
[21] = target: anti-idiotype IgD-TM on transfected SP2/0 cells; experiment: cell-based ELISA, SM03 10 ug/ml on transfected SP2/0 Clone AB4 (surface expression graded -), anti-human Fc-HRP
[22] = target: anti-idiotype mIgG Fab-GPI-DAF fusion protein on transfected SP2/0 cells; experiment: cell-based ELISA, SM03 on transfected SP2/0 GPI clone 10 (surface expression graded -), anti-human Fc-HRP
[23] = target: anti-idiotype mIgG Fab-glycophorin A fusion protein on transfected SP2/0 cells; experiment: cell-based ELISA, SM03 on transfected SP2/0 GlycoA clone 14 (surface expression graded -), anti-human Fc-HRP
BSA = target: T1, BSA (UniProt P02769 25-607); experiment: phage ELISA, 1 ug BSA coated per well, anti-M13-HRP detection
T1 construct: also called control protein (BSA)
Protocol: Phages that survived panning were rescued. The binding specificities of selected phages were evaluated by Phage-ELISA using the target anti-CD22 antibodies RFB4, SM03, and framework-patched (humanized) SM06 and other control antibodies as antigens. […] After washing five times with borate washing buffer, pH8.0, horse radish peroxidase (HRP)-conjugated anti-M13 mouse antibody (Amersham) at a dilution fold of 3,000 was added.

Sequence of anti-idiotype mIgG Fab-glycophorin A fusion protein on transfected SP2/0 cells (heavy, as listed by the source limits assumed, chain 1 of 2): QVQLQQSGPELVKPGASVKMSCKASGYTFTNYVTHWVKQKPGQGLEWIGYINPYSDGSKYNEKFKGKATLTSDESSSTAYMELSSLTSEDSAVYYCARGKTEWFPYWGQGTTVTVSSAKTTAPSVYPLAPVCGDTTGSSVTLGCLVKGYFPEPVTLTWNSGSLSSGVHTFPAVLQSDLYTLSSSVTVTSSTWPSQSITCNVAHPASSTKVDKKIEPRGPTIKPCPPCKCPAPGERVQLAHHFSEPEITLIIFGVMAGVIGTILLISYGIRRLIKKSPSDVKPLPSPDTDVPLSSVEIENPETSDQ
Sequence of anti-idiotype mIgG Fab-glycophorin A fusion protein on transfected SP2/0 cells (light, as listed by the source limits assumed, chain 2 of 2): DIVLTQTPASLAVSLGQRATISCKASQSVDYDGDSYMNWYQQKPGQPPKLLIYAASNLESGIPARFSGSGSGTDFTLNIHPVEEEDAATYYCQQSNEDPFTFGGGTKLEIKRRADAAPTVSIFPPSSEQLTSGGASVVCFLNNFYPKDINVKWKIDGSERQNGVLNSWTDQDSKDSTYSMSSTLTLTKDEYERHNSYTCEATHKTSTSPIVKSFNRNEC
Sequence of anti-idiotype mIgG Fab-GPI-DAF fusion protein on transfected SP2/0 cells (heavy, as listed by the source): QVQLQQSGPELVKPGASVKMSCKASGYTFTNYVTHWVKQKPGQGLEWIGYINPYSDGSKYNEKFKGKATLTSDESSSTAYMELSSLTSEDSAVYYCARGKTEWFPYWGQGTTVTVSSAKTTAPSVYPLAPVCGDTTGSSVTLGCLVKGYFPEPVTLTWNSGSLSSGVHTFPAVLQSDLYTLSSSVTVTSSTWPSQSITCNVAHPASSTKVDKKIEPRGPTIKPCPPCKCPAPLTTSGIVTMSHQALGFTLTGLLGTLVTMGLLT
Sequence of anti-idiotype IgD-TM on transfected SP2/0 cells (heavy, as listed by the source limits assumed, chain 1 of 2): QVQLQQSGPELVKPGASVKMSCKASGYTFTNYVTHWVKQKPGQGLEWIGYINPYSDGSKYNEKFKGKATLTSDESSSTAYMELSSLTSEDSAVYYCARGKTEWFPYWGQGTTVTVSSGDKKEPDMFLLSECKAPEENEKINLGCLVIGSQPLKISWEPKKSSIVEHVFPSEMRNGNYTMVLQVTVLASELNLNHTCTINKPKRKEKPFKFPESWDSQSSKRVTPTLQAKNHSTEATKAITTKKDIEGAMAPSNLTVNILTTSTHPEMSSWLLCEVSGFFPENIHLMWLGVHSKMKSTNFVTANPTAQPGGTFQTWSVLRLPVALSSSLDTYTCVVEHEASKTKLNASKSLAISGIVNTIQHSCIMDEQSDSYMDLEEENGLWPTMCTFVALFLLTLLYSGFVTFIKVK
Sequence of anti-idiotype IgD-TM on transfected SP2/0 cells (light, as listed by the source limits assumed, chain 2 of 2): as the sequence (light, as listed by the source limits assumed, chain 2 of 2) above
T1 sequence (P02769 25-607 limits assumed): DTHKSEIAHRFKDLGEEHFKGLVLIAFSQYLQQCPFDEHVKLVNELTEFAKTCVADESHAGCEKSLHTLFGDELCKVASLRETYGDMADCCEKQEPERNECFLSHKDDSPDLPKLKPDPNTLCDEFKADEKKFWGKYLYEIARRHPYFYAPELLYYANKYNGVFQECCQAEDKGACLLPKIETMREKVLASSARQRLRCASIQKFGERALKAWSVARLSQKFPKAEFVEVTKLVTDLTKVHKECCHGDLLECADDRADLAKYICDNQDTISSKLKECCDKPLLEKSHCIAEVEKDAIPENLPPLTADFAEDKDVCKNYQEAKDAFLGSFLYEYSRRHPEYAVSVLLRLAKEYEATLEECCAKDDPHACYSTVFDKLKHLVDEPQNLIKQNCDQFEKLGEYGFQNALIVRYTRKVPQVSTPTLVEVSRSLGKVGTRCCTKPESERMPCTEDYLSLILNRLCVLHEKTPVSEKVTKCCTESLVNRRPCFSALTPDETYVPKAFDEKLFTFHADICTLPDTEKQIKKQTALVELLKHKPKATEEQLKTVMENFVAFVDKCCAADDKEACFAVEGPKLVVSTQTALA

Q: SM03 chimeric anti-CD22 antibody was tested. Which OD450 nm [1] did it give?
A: Its OD450 nm is 0.579 OD450 nm.

Q: And the OD450 nm [2]?
A: The OD450 nm was 0.716 OD450 nm.

Q: What about the OD450 nm [3] of the same molecule?
A: The OD450 nm was 0.736 OD450 nm.

Q: And the OD450 nm [4]?
A: The OD450 nm was 0.618 OD450 nm.

Q: What about the OD450 nm [5] of the same molecule?
A: Its OD450 nm is 0.329 OD450 nm.

Q: And the OD450 nm [6]?
A: Its OD450 nm is 0.977 OD450 nm.

Q: And the OD450 nm [7]?
A: The OD450 nm was 0.501 OD450 nm.

Q: And the OD450 nm [8]?
A: Its OD450 nm is 3.64 OD450 nm.

Q: What about the OD450 nm [9] of the same molecule?
A: Its OD450 nm is 3.53 OD450 nm.

Q: And the OD450 nm [10]?
A: The OD450 nm was 0.7 OD450 nm.

Q: What about the OD450 nm [11] of the same molecule?
A: Its OD450 nm is 0.459 OD450 nm.

Q: What about the OD450 nm [12] of the same molecule?
A: Its OD450 nm is 0.572 OD450 nm.

Q: And the OD450 nm [13]?
A: The OD450 nm was 3.08 OD450 nm.

Q: And the OD450 nm [14]?
A: The OD450 nm was 3.38 OD450 nm.

Q: What about the OD450 nm [15] of the same molecule?
A: The OD450 nm was 3.77 OD450 nm.

Q: And the OD450 nm [16]?
A: The OD450 nm was 0.623 OD450 nm.

Q: What about the OD450 nm [17] of the same molecule?
A: The OD450 nm was 0.498 OD450 nm.

Q: And the OD450 nm [18]?
A: The OD450 nm was 0.406 OD450 nm.

Q: What about the OD450 nm [19] of the same molecule?
A: Its OD450 nm is 0.618 OD450 nm.

Q: What about the OD450 nm [20] of the same molecule?
A: Its OD450 nm is 0.284 OD450 nm.

Q: What about the OD450 nm [21] of the same molecule?
A: The OD450 nm was 0.428 OD450 nm.

Q: And the OD450 nm [22]?
A: Its OD450 nm is 0.85 OD450 nm.

Q: What about the OD450 nm [23] of the same molecule?
A: Its OD450 nm is 0.437 OD450 nm.

B1: scFv Phage #3 (scFv)
scFv: QVQLVQSGPELVKPGASVKMSCKASGYTFTNYVTHWVKQKPGQGLEWIGYINPYSDGSKYNEKFKGKATLTSDESSSTAYMEVSSLTSEDSAVYYCARGKTEWFPYWGQGTPLTVSGGGGSGSGSSGGGGDIVLTQTPASLAVSLGQRATISCKASQSVDYDGDSYMNWYQQKPGQPPKLLIYAASNLESGIPARFSGSGSGTDFTLNIHPVEEEDAATYYCQQSNEDPFTFGGGTKLEI
notes: the phage coat protein fusion is not described; also called scFv isolated from phage #3
Q: Does B1 bind (BSA)?
A: Result: no binding
